Results: publication PMC10329638

Target: rat ASIC3 wild type (rat) (UniProt O35240)
Chain of UniProt O35240 (O35240 whole entry): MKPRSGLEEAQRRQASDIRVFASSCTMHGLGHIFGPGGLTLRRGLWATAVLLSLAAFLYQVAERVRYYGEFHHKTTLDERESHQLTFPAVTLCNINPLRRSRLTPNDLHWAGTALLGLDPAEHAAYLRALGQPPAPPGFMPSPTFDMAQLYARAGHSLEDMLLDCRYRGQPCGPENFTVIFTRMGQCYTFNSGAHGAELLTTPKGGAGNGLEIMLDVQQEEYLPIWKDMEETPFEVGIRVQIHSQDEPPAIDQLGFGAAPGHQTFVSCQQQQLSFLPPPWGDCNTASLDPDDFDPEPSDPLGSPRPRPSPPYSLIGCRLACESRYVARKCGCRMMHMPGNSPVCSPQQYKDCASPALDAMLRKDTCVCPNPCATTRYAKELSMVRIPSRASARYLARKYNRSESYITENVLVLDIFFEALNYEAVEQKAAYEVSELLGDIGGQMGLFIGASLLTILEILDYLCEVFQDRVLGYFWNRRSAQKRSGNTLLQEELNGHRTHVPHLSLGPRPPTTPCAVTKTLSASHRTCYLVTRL

proton-gated currents of Xenopus oocytes co-expressing wild-type ASIC3 and mutant ASIC2a (two-electrode voltage clamp, pH 7.0 to 3): > 1 µA
Substance: rat ASIC2a-H72N (from UniProt Q62962-1 1-512) (natural protein)
